How the values were obtained:
sFlt-1 (Homo sapiens) = sFlt-1 (Homo sapiens) (UniProt P17948); conditions: cited from earlier work
human VEGF (human) [1] = target: human VEGF (human) (UniProt P15692)
human VEGF (human) [2] = target: human VEGF (human) (UniProt P15692); remark: listed apart in the source
mouse VEGF (mouse) = mouse VEGF (mouse) (UniProt Q00731)

Chain of UniProt P17948 (P17948 27-1338): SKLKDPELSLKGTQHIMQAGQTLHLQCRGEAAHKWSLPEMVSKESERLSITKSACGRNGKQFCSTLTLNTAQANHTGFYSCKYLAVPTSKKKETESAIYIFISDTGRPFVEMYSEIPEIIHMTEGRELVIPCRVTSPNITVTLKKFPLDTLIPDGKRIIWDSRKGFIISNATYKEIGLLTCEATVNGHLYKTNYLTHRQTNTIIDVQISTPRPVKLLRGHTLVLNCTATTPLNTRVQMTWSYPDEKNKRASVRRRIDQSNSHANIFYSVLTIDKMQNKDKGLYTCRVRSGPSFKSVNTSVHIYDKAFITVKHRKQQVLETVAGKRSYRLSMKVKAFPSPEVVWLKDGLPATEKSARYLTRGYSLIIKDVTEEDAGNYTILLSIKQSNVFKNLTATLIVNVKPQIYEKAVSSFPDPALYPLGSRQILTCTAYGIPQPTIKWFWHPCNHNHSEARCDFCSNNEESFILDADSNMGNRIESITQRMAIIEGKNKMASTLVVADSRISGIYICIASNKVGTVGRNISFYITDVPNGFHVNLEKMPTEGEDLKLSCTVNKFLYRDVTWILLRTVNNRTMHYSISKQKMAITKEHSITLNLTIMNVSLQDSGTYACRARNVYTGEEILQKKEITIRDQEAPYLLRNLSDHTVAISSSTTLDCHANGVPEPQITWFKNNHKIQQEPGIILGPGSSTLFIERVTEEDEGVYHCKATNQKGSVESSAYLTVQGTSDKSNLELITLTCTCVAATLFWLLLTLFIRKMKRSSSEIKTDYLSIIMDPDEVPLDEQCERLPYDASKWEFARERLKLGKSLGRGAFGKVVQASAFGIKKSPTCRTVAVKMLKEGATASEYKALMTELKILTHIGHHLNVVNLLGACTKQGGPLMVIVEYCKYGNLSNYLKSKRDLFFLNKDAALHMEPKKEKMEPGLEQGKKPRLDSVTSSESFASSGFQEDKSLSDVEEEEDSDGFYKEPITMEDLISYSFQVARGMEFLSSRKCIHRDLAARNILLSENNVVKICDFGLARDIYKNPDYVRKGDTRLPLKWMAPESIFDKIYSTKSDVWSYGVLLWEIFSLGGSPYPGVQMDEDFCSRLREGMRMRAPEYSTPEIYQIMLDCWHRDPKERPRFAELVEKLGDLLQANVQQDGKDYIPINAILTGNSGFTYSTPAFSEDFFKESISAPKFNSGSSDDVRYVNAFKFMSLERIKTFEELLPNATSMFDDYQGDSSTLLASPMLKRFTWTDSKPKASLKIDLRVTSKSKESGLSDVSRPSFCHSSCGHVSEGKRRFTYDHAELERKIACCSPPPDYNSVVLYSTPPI

For VEGF (from UniProt P15692), the Kd (sFlt-1 (Homo sapiens)) is given as 0.03 nM.

In the case of “human recombinant VEGFR-1/Flt-1 Fc chimera (from UniProt P17948-2 27-687) (Fc fusion)”, the VEGFR-2 phosphorylation in HUVECs with human VEGF, human sFlt-1 and a 4-fold molar excess of the antibody 21B3 (no letters) (human VEGF (human) [1]) is reported as 85 % of maximum and the VEGFR-2 phosphorylation in HUVECs with VEGF, human sFlt-1 and 2 times to 4 times molar excess of the antibody 27H6 (human VEGF (human) [2]) is reported as 89 % of maximum.

B1: mouse recombinant VEGFR-1/Flt-1 Fc chimera (Fc fusion)
chain: YGSGSKLKVPELSLKGTQHVMQAGQTLFLKCRGEAAHSWSLPTTVSQEDKRLSITPPSACGRDNRQFCSTLTLDTAQANHTGLYTCRYLPTSTSKKKKAESSIYIFVSDAGSPFIEMHTDIPKLVHMTEGRQLIIPCRVTSPNVTVTLKKFPFDTLTPDGQRITWDSRRGFIIANATYKEIGLLNCEATVNGHLYQTNYLTHRQTNTILDVQIRPPSPVRLLHGQTLVLNCTATTELNTRVQMSWNYPGKATKRASIRQRIDRSHSHNNVFHSVLKINNVESRDKGLYTCRVKSGSSFQSFNTSVHVYEKGFISVKHRKQPVQETTAGRRSYRLSMKVKAFPSPEIVWLKDGSPATLKSARYLVHGYSLIIKDVTTEDAGDYTILLGIKQSRLFKNLTATLIVNVKPQIYEKSVSSLPSPPLYPLGSRQVLTCTVYGIPRPTITWLWHPCHHNHSKERYDFCTENEESFILDPSSNLGNRIESISQRMTVIEGTNKTVSTLVVADSQTPGIYSCRAFNKIGTVERNIKFYVTDVPNGFHVSLEKMPAEGEDLKLSCVVNKFLYRDITWILLRTVNNRTMHHSISKQKMATTQDYSITLNLVIKNVSLEDSGTYACRARNIYTGEDILRKTEVLVRDSEAPHLLQNLSDYEVSISGSTTLDCQARGVPAPQITWFKNNHKIQQEPGIILGPGNSTLFIERVTEEDEGVYRCRATNQKGAVESAAYLTVQGTSDKSNLE
For B1, the VEGFR-2 phosphorylation in HUVECs with mouse VEGF, mouse sFlt-1 and a 10-fold molar excess of the antibody 21B3 (no letters) (mouse VEGF (mouse)) was 85 % of maximum.
